Results as given in the supplement of paper PMC9876800.

System: peptide library, one residue held at a place counted from the S/T acceptor
Assay: relative phosphorylation of the sub-library (ratio to the mean residue at this position); human; higher = residue favoured
Outline: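 Human or orthologue kinase constructs, purified and recombinant, were incubated under kinase-specific conditions in 384-well plates with biotinylated degenerate peptide sub-libraries. Each sub-library fixed one residue at one position around a central Ser/Thr. Incubations lasted 90 min with peptides at 50 μM and 50 μM ATP spiked with γ-32P-ATP, after which spots on streptavidin membranes were phosphorimaged and quantified by densitometry. Relative sub-library phosphorylation is a ratio to the mean residue at that position.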

MAP4K3, construct: aa1-380, sequence (Q8IVH8 1-380, looked up): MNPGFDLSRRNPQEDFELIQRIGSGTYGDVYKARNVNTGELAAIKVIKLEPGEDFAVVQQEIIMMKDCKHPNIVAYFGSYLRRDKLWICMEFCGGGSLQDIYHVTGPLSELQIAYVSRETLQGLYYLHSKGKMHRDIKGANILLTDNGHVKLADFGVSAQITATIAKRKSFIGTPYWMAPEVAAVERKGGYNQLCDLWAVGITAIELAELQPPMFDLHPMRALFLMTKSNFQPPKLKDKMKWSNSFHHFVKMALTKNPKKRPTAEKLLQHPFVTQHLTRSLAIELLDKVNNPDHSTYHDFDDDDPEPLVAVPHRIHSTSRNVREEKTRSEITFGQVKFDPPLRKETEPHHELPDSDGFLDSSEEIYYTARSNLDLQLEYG
AURKA, construct: Full length, sequence (O14965 whole entry, looked up): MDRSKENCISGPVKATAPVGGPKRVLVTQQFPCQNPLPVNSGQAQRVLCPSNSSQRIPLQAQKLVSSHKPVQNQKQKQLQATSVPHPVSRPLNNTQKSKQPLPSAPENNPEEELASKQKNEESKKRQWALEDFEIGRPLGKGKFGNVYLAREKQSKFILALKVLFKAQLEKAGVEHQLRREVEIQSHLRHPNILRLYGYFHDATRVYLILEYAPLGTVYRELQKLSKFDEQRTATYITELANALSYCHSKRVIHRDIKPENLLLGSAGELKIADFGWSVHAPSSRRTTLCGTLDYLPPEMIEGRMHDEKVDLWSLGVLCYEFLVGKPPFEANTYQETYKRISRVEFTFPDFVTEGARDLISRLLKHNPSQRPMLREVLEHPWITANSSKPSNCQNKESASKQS

AURKA, construct: Full length (from UniProt O14965)
relative phosphorylation
Conditions | at +1 | at +2 | at +3 | at +4 | at -1 | at -2 | at -3 | at -4 | at -5
A fixed | 0.474 | 1 | 0.906 | 0.863 | 0.683 | 0.209 | 0.665 | 1.08 | 1.08
D fixed | 1.14 | 0.993 | 0.822 | 0.906 | 1.39 | 0.274 | 0.606 | 1.4 | 1
E fixed | 0.796 | 1.03 | 0.851 | 1.1 | 1.56 | 0.257 | 0.85 | 0.963 | 1.06
F fixed | 1.83 | 0.958 | 1.25 | 0.755 | 0.884 | 0.203 | 0.574 | 0.725 | 0.83
G fixed | 0.647 | 1.76 | 1.48 | 1.05 | 0.689 | 0.32 | 1.38 | 1.23 | 1.18
H fixed | 0.665 | 1.3 | 1.32 | 1.18 | 1.09 | 0.341 | 0.964 | 0.952 | 1.08
I fixed | 1.66 | 1.03 | 0.865 | 0.931 | 0.637 | 0.162 | 0.46 | 0.706 | 0.874
K fixed | 0.241 | 0.324 | 0.844 | 1.19 | 0.707 | 1.32 | 1.58 | 1.35 | 1.38
L fixed | 2.05 | 0.784 | 0.812 | 0.649 | 1.32 | 0.182 | 0.367 | 0.766 | 0.753
M fixed | 1.76 | 0.832 | 0.752 | 1 | 1.38 | 0.176 | 0.541 | 0.818 | 0.722
N fixed | 0.852 | 0.649 | 0.798 | 1.26 | 1.15 | 0.345 | 0.857 | 1.04 | 1.2
P fixed | 0.211 | 0.78 | 1.3 | 0.969 | 0.748 | 0.289 | 0.883 | 0.905 | 0.738
Q fixed | 0.735 | 0.629 | 0.843 | 1.06 | 1.09 | 0.608 | 0.667 | 0.908 | 0.802
R fixed | 0.425 | 0.509 | 0.821 | 1.24 | 1.16 | 11.7 | 4.83 | 1.71 | 1.67
V fixed | 1.11 | 0.766 | 0.775 | 0.682 | 0.601 | 0.163 | 0.425 | 0.699 | 0.759
W fixed | 1.26 | 0.881 | 1.2 | 1.22 | 0.587 | 0.232 | 0.779 | 0.966 | 0.906
Y fixed | 1.14 | 2.77 | 1.36 | 0.948 | 1.33 | 0.185 | 0.574 | 0.782 | 0.964
pThr fixed | 1.61 | 1.26 | 1.07 | 1.53 | 0.588 | 0.374 | 0.879 | 0.972 | 1.04
pTyr fixed | 0.836 | 1.53 | 1.74 | 1.43 | 2.24 | 0.356 | 1 | 0.962 | 1.3

MAP4K3, construct: aa1-380 (from UniProt Q8IVH8)
relative phosphorylation
Conditions | at +1 | at +2 | at +3 | at +4 | at -1 | at -2 | at -3 | at -4 | at -5
A fixed | 0.464 | 0.792 | 0.671 | 0.932 | 0.978 | 1.09 | 0.815 | 0.964 | 1.07
D fixed | 0.179 | 0.667 | 0.375 | 0.655 | 0.611 | 0.522 | 0.553 | 0.851 | 0.835
E fixed | 0.151 | 0.643 | 0.296 | 0.592 | 0.437 | 0.406 | 0.569 | 0.894 | 0.687
F fixed | 1.09 | 0.464 | 0.536 | 0.71 | 0.692 | 1.16 | 0.778 | 0.991 | 0.922
G fixed | 0.613 | 0.996 | 0.846 | 1.12 | 1.93 | 1.43 | 1.51 | 1.39 | 1.32
H fixed | 0.606 | 1.12 | 1.04 | 1.07 | 1.21 | 1.34 | 1.13 | 1.04 | 1.07
I fixed | 1.8 | 0.357 | 0.432 | 0.733 | 0.279 | 0.676 | 0.556 | 0.696 | 0.772
K fixed | 0.642 | 2.68 | 2.32 | 1.93 | 1.66 | 0.987 | 2.27 | 1.34 | 1.49
L fixed | 3.72 | 0.602 | 0.549 | 0.722 | 0.859 | 0.655 | 0.602 | 0.748 | 0.637
M fixed | 2.73 | 0.664 | 0.51 | 0.9 | 1.05 | 0.687 | 0.651 | 0.869 | 0.862
N fixed | 0.632 | 1.11 | 0.868 | 1.05 | 1.54 | 1.16 | 1.07 | 0.867 | 1.01
P fixed | 0.418 | 1.16 | 0.942 | 1.11 | 0.741 | 0.854 | 1.08 | 1.13 | 1.11
Q fixed | 0.655 | 0.952 | 0.952 | 1.17 | 0.998 | 0.785 | 0.843 | 0.928 | 0.864
R fixed | 0.67 | 3.22 | 4.5 | 1.67 | 1.92 | 1.5 | 2.13 | 1.48 | 1.45
V fixed | 0.672 | 0.428 | 0.497 | 0.743 | 0.362 | 0.815 | 0.529 | 0.695 | 0.833
W fixed | 1.14 | 0.528 | 0.893 | 0.999 | 0.668 | 1.3 | 0.935 | 1.16 | 1.07
Y fixed | 0.821 | 0.615 | 0.772 | 0.885 | 1.06 | 1.63 | 0.978 | 0.968 | 1.01
pThr fixed | 0.928 | 0.749 | 0.717 | 0.614 | 0.437 | 0.985 | 1.11 | 1.13 | 1.32
pTyr fixed | 0.355 | 0.389 | 0.637 | 0.486 | 0.516 | 0.763 | 1.04 | 0.852 | 1.16
